The target in assay [1] is T1, HLA-A*01:01_… (HLA-PEPTIDE target G2), recombinant biotinylated complex (human, enzymatically biotinylated (BirA)).
T1 construct: also called G2-pHLA
The experiment in a line: phage panning, scFv ELISA.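 Further: scFv binders from three to four bead panning rounds, tested as PPEs by ELISA on streptavidin plates carrying peptide-HLA complex (2 µg/ml), detected via anti-V5 and HRP anti-mouse.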
Procedure: Phage library screening was carried out according to the overall screening design described above. Three to four rounds of bead-based panning were performed to identify scFv binders to each peptide-HLA complex. For each round of panning, an aliquot of starting phage was set aside for input titering and the remaining phage was depleted three times against Dynabead M-280 streptavidin beads (Life Technologies) followed by a depletion against Streptavidin beads pre-bound with 100 μmoles of pooled negative peptide-HLA complexes. For the first round of panning, 100 μmoles of peptide-HLA complex bound to streptavidin beads was incubated with depleted phage for 2 hours at room temperature with rotation. Three five-minute washes with 0.5% BSA in 1×PBST (PBS+0.05% Tween-20) followed by three five-minute washes with 0.5% BSA in 1×PBS were utilized to remove any unbound phage to the peptide-HLA complex bound beads. To elute the bound phage from the washed beads, 1 ml 0.1M TEA was added and incubated for 10 minutes at room temperature with rotation. The eluted phage was collected from the beads and neutralized with 0.5 ml 1M Tris-HCl pH 7.5. The neutralized phage was then used to infect log growth TG-1 cells (OD₆₀₀=0.5) and after an hour of infection at 37° C., cells were plated onto 2YT media with 100 μg/ml carbenicillin and 2% glucose (2YTCG) agar plates for output titer and bacterial growth for subsequent panning rounds.
96-well and/or 384-well streptavidin coated plates (Pierce) were coated with 2 μg/ml peptide-HLA complex in HLA buffer and incubated overnight at 4° C. Plates were washed three times between each step with PBST (PBS+0.05%). The antigen coated plates were blocked with 3% BSA in PBS (blocking buffer) for 1 hour at room temperature. After washing, scFv PPEs were added to the plates and incubated at room temperature for 1 hour. Following washing, mouse anti-v5 antibody (Invitrogen) in blocking buffer was added to detect scFv and incubated at room temperature for 1 hour. After washing, HRP-goat anti-mouse antibody (Jackson ImmunoResearch) was added and incubated at room temperature for 1 hour.

Assay [2] deals with T1, HLA-A*01:01_… (HLA-PEPTIDE target G2), …. The experiment in a line: BLI, pHLA on sensor, Fab titrated, 1:1 model.
Assay [3] concerns the target HLA-A*02:01_… (HLA-PEPTIDE target G8), recombinant complex (human, enzymatically biotinylated (BirA) for screening and functional assays). The assay can be described thus: scFv PPE ELISA.

B1: G2(2F01) scFv (scFv, V domains shown)
VH: QVQLVQSGAEVKKPGASVKVSCKASGYTFTSYYMHWVRQAPGQGLEWMGMINPRDDTTDYARDFQGRVTMTRDTSTSTVYMELSSLRSEDTAVYYCALSGNYYGMDVWGQGTTVTVSS
VL: DIQMTQSPSSLSASVGDRVTITCQASQDISNYLNWYQQKPGKAPKLLIYGASRLQSGVPSRFSGSGSGTDFTLTISSLQPEDFATYYCQEGITYTFGQGTKVEIK
B1: the binding result in assay [1] is recorded as “binds”.

B2: G2(1B06) Fab (Fab, V domains shown)
VH: QVQLVQSGAEVKKPGASVKVSCKASGGTFSNYILSWVRQAPGQGLEWMGWINPDSGGTNYAQKFQGRVTMTRDTSTSTVYMELSSLRSEDTAVYYCARGSYGMDVWGQGTTVTVSS
VL: DIQMTQSPSSLSASVGDRVTITCRASQSISRWLAWYQQKPGKAPKLLIYAASSLQSGVPSRFSGSGSGTDFTLTISSLQPEDFATYYCQQSYSTPYTFGQGTKLEIK
notes: Fab
Turning to B2, in assay [2], the Kd was 44.4 nM, the koff was 0.0323 s⁻¹ and the association rate constant (kon) worked out at 1.06e+06 M⁻¹ s⁻¹.

B3: G8(1A06) scFv (scFv, V domains shown)
VH: QVQLVQSGAEVKKPGASVKVSCKASGYTFTNYYMHWVRQAPGQGLEWMGWMNPIGGGTGYAQKFQGRVTMTRDTSTSTVYMELSSLRSEDTAVYYCARVYDFWSVLSGFDIWGQGTLVTVSS
VL: DIQMTQSPSSLSASVGDRVTITCRASQAISNSLAWYQQKPGKAPKLLIYAASTLQSGVPSRFSGSGSGTDFTLTISSLQPEDFATYYCGQSYSTPPTFGQGTKLEIK
As for B3, in assay [3], the “fold selective binding to target pHLA over minipool of negative control pHLAs” value (“fold selective binding to target pHLA” for short) is no less than 3 fold.

B4: G8(1C11) scFv (scFv, V domains shown)
VH: QVQLVQSGAEVKKPGASVKVSCKASGGTLSSYPINWVRQAPGQGLEWMGWISTYSGHADYAQKLQGRVTMTRDTSTSTVYMELSSLRSEDTAVYYCARSYDYGDYLNFDYWGQGTLVTVSS
VL: DIQMTQSPSSLSASVGDRVTITCQASQDISNYLNWYQQKPGKAPKLLIYAASSLQSGVPSRFSGSGSGTDFTLTISSLQPEDFATYYCQQSYSIPPTFGGGTKVDIK
In the case of B4, the “fold selective binding to target pHLA” value in assay [3] is no less than 3 fold.

B5: G8(1D02) scFv (scFv, V domains shown)
VH: EVQLLESGGGLVQPGGSLRLSCAASGFTFSSYWMSWVRQAPGKGLEWVSSISGRGDNTYYADSVKGRFTISRDNSKNTLYLQMNSLRAEDTAVYYCARASGSGYYYYYGMDVWGQGTTVTVSS
VL: DIQMTQSPSSLSASVGDRVTITCQASQDISNYLNWYQQKPGKAPKLLIYAASSLQSGVPSRFSGSGSGTDFTLTISSLQPEDFATYYCQQSYSAPYTFGGGTKVEIK
With B5, the “fold selective binding to target pHLA” value in assay [3] was no less than 3 fold.

B6: G8(1B03) scFv (scFv, V domains shown)
VH: EVQLLESGGGLVQPGGSLRLSCAASGFTFSDYYMSWVRQAPGKGLEWVSGINWNGGSTGYADSVKGRFTISRDNSKNTLYLQMNSLRAEDTAVYYCARVEQGYDIYYYYYMDVWGKGTTVTVSS
VL: DIQMTQSPSSLSASVGDRVTITCRASQSISSYLNWYQQKPGKAPKLLIYKASSLESGVPSRFSGSGSGTDFTLTISSLQPEDFATYYCQQSYSAPYTFGPGTKVDIK
B6: the “fold selective binding to target pHLA” value in assay [3] is no less than 3 fold.

B7: G8(2B05) scFv (scFv, V domains shown)
VH: EVQLLESGGGLVQPGGSLRLSCAASGFDFSIYSMNWVRQAPGKGLEWVSAISGSGGSTYYADSVKGRFTISRDNSKNTLYLQMNSLRAEDTAVYYCASNGNYYGSGSYYNYWGQGTLVTVSS
VL: DIQMTQSPSSLSASVGDRVTITCRASQSISRWLAWYQQKPGKAPKLLIYAASSLQSGVPSRFSGSGSGTDFTLTISSLQPEDFATYYCQQYSTYPITIGQGTKVEIK
On to B7, for which, in assay [3], the “fold selective binding to target pHLA” value was no less than 3 fold.

B8: G2(2A11) Fab (Fab, V domains shown)
VH: EVQLLESGAEVKKPGASVKVSCKASGYTFTTYDLAWVRQAPGQGLEWMGWINPNSGGTNYAQKFQGRVTMTRDTSTSTVYMELSSLRSEDTAVYYCARANWLDYWGQGTLVTVSS
VL: DIQMTQSPSSLSASVGDRVTITCRASQDISRWLAWYQQKPGKAPKLLIYAASRLQAGVPSRFSGSGSGTDFTLTISSLQPEDFATYYCQQSYSTPYSFGQGTKLEIK
notes: Fab
On to B8, for which, in assay [2], the dissociation constant (Kd) was 28.1 nM, the koff is 0.0172 s⁻¹ and the kon was 633000 M⁻¹ s⁻¹.

B9: G2(1B12) Fab (Fab, V domains shown)
VH: QVQLVQSGAEVKKPGASVKVSCKASGYTFTSYGITWVRQAPGQGLEWMGWINPNSGGTNYAQKFQGRVTMTRDTSTSTVYMELSSLRSEDTAVYYCARDYGDLDYWGQGTLVTVSS
VL: DIQMTQSPSSLSASVGDRVTITCRASQNIGNWLAWYQQKPGKAPKLLIYAASTLQTGVPSRFSGSGSGTDFTLTISSLQPEDFATYYCQQSYSAPYSFGQGTKLEIK
notes: Fab
In the case of B9, in assay [2], the Kd was determined as 22.8 nM, the dissociation rate constant (koff) came to 0.00728 s⁻¹ and the on-rate (kon) was 366000 M⁻¹ s⁻¹.

B10: G8(2E06) scFv (scFv, V domains shown)
VH: QVQLVQSGAEVKKPGASVKVSCKASGYTLTTYYMHWVRQAPGQGLEWMGWINPNSGGTNYAQKFQGRVTMTRDTSTSTVYMELSSLRSEDTAVYYCARAVYYDFWSGPFDYWGQGTLVTVSS
VL: DIQMTQSPSSLSASVGDRVTITCRASQGISNSLAWYQQKPGKAPKLLIYAASSLQSGVPSRFSGSGSGTDFTLTISSLQPEDFATYYCQQANSFPWTFGQGTKLEIK
As for B10, the “fold selective binding to target pHLA” value in assay [3] is no less than 3 fold.

B11: G2(2A03) Fab (Fab, V domains shown)
VH: QVQLVQSGAEVKKPGASVKVSCKASGYTFTSYTVNWVRQAPGQGLEWMGWINPNSGGTKYAQNFQGRVTMTRDTSTSTVYMELSSLRSEDTAVYYCARGGGGALDYWGQGTLVTVSS
VL: DIQMTQSPSSLSASVGDRVTITCRASQSISSWLAWYQQKPGKAPKLLIYAASTLQSGVPSRFSGSGSGTDFTLTISSLQPEDFATYYCQQSYLPPYSFGQGTKLEIK
notes: Fab
Regarding B11, in assay [2], the dissociation constant (Kd) was found to be 109 nM, the koff was 0.036 s⁻¹ and the association rate constant (kon) came out at 332000 M⁻¹ s⁻¹.

B12: G8(1A04) scFv (scFv, V domains shown)
VH: QVQLVQSGAEVKKPGASVKVSCKASGYPFIGQYLHWVRQAPGQGLEWMGIINPSGDSATYAQKFQGRVTMTRDTSTSTVYMELSSLRSEDTAVYYCARDLSYYYGMDVWGQGTTVTVSS
VL: DIQMTQSPSSLSASVGDRVTITCWASQGISSYLAWYQQKPGKAPKLLIYAASSLQSGVPSRFSGSGSGTDFTLTISSLQPEDFATYYCQQSYNTPWTFGPGTKVDIK
Take B12: in assay [3], the “fold selective binding to target pHLA” value was no less than 3 fold.

B13: G2(1H01) Fab (Fab, V domains shown)
VH: QVQLVQSGAEVKKPGASVKVSCKASGYTFTRYTINWVRQAPGQGLEWMGWINPNSGGTNYAQKFQGRVTMTRDTSTSTVYMELSSLRSEDTAVYYCARDFVGYDDWGQGTLVTVSS
VL: DIQMTQSPSSLSASVGDRVTITCRASQSVGNWLAWYQQKPGKAPKLLIYGASSLQTGVPSRFSGSGSGTDFTLTISSLQPEDFATYYCQQSYSAPYTFGQGTKVEIK
notes: Fab
Turning to B13, in assay [2], the equilibrium dissociation constant (Kd) amounted to 15.5 nM, the koff was 0.0148 s⁻¹ and the kon came to 952000 M⁻¹ s⁻¹.

B14: G8(2E04) scFv (scFv, V domains shown)
VH: QVQLVQSGAEVKKPGSSVKVSCKASGGTFSSYGVSWVRQAPGQGLEWMGWISPYSGNTDYAQKFQGRVTITADESTSTAYMELSSLRSEDTAVYYCARGLYYMDVWGKGTTVTVSS
VL: DIQMTQSPSSLSASVGDRVTITCRASQSISSWLAWYQQKPGKAPKLLIYDASNLETGVPSRFSGSGSGTDFTLTISSLQPEDFATYYCQQSYSTPLTFGGGTKLEIK
Consider B14, for which, in assay [3], the “fold selective binding to target pHLA” value is no less than 3 fold.

B15: G8(2C10) scFv (scFv, V domains shown)
VH: QVQLVQSGAEVKKPGASVKVSCKASGYTFTSYYMHWVRQAPGQGLEWMGWINPYSGGTNYAQKFQGRVTMTRDTSTSTVYMELSSLRSEDTAVYYCAKGGIYYGSGSYPSWGQGTLVTVSS
VL: DIQMTQSPSSLSASVGDRVTITCRASQDVSTWLAWYQQKPGKAPKLLIYAASSLQSGVPSRFSGSGSGTDFTLTISSLQPEDFATYYCQQSHSTPQTFGQGTKVEIK
With B15, in assay [3], the “fold selective binding to target pHLA” value is no less than 3 fold.

B16: G2(1D06) scFv (scFv, V domains shown)
VH: QVQLVQSGAEVKKPGSSVKVSCKASGYTFTSQYMHWVRQAPGQGLEWMGRIIPLLGIVNYAQKFQGRVTITADESTSTAYMELSSLRSEDTAVYYCARDKNYYGMDVWGQGTTVTVSS
VL: EIVMTQSPATLSVSPGERATLSCRASQSVSRNLAWYQQKPGQAPRLLIYGASTRATGIPARFSGSGSGTEFTLTISSLQSEDFAVYYCQHYGYSPVTFGQGTKLEIK
Consider B16, for which the binding result in assay [1] is “binds”.

B17: G8(1H08) scFv (scFv, V domains shown)
VH: QVQLVQSGAEVKKPGASVKVSCKASGYTFGNYFMHWVRQAPGQGLEWMGMVNPSGGSETFAQKFQGRVTMTRDTSTSTVYMELSSLRSEDTAVYYCAASTWIQPFDYWGQGTLVTVSS
VL: DIQMTQSPSSLSASVGDRVTITCRASQGINSYLAWYQQKPGKAPKLLIYDASNLETGVPSRFSGSGSGTDFTLTISSLQPEDFATYYCQQHNSYPPTFGQGTKLEIK
notes: also called G8-P1H08
On to B17, for which, in assay [3], the “fold selective binding to target pHLA” value was no less than 3 fold.

B18: G2(1H11) Fab (Fab, V domains shown)
VH: QVQLVQSGAEVKKPGASVKVSCKASGYTFTNYYMHWVRQAPGQGLEWMGMINPSGGGTSYAQKFQGRVTMTRDTSTSTVYMELSSLRSEDTAVYYCARGNPWELRLDYWGQGTLVTVSS
VL: DIQMTQSPSSLSASVGDRVTITCQASQDISNYLNWYQQKPGKAPKLLIYAASSLQSGVPSRFSGSGSGTDFTLTISSLQPEDFATYYCQQYYSYPFTFGPGTKVDIK
notes: Fab
As for B18, in assay [2], the dissociation constant (Kd) was determined as 49.9 nM, the off-rate constant (koff) stood at 0.028 s⁻¹ and the kon was 581000 M⁻¹ s⁻¹.

B19: G8(1A03) scFv (scFv, V domains shown)
VH: QVQLVQSGAEVKKPGASVKVSCKASGGTFSRSAITWVRQAPGQGLEWMGWINPNSGATNYAQKFQGRVTMTRDTSTSTVYMELSSLRSEDTAVYYCARDDYGDYVAYFQHWGQGTLVTVSS
VL: DIQMTQSPSSLSASVGDRVTITCRASQSITSYLNWYQQKPGKAPKLLIYDASNLETGVPSRFSGSGSGTDFTLTISSLQPEDFATYYCQQNYNSVTFGQGTKLEIK
With B19, the “fold selective binding to target pHLA” value in assay [3] is no less than 3 fold.
